According to patent publication US20220040297A1 (Chugai, published 2022):
Residue numbers refer to the chain shown, from its start. Numbers in names are those of the source.

T1: biotin-labeled human CD154 (human, UniProt P29965 113-261, limits assumed, biotin-labeled)
T1 construct: also called biotinylated human CD154
T1 sequence (looked up): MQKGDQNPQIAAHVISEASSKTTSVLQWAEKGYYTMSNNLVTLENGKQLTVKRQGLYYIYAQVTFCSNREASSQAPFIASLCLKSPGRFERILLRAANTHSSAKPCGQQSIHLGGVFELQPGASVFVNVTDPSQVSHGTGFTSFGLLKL

B1: CE115HA000 W33F one-arm antibody (antibody, human IgG1, kappa, L234A L235A, N297A, name in Kabat numbering)
heavy: QVQLVESGGGVVQPGRSLRLSCAASGFTFSNAFMHWVRQAPGKGLEWVAQIKAKSNNYATYYAESVKGRFTISRDDSKNSLYLQMNSLKTEDTAVYYCRYVHYGAYYGVDAWGQGTTVTVSSASTKGPSVFPLAPSSKSTSGGTAALGCLVKDYFPEPVTVSWNSGALTSGVHTFPAVLQSSGLYSLSSVVTVPSSSLGTQTYICNVNHKPSNTKVDKKVEPKSCDKTHTCPPCPAPEAAGGPSVFLFPPKPKDTLMISRTPEVTCVVVDVSHEDPEVKFNWYVDGVEVHNAKTKPREEQYASTYRVVSVLTVLHQDWLNGKEYKCKVSNKALPAPIEKTISKAKGQPREPQVYTLPPSRCELTKNQVSLSCAVKGFYPSDIAVEWESNGQPENNYKTTPPVLDSDGSFFLVSKLTVDKSRWQQGNVFSCSVMHEALHNHYTQKSLSLSPDYKDDDDK
chain: EPKSSDKTHTCPPCPAPELLGGPSVFLFPPKPKDTLMISRTPEVTCVVVDVSHEDPEVKFNWYVDGVEVHNAKTKPREEQYNSTYRVVSVLTVLHQDWLNGKEYKCKVSNKALPAPIEKTISKAKGQPREPQVCTLPPSRDELTKNQVSLWCLVKGFYPSDIAVEWESNGQPENNYKTTPPVLDSDGSFFLYSKLTVDKSRWQQGNVFSCSVMHEALHNRYTQKSLSLSP
light: DIVMTQSPLSLPVTPGEPASISCRSSQSLVHSNRNTYLHWYQQKPGQAPRLLIYKVSNRFSGVPDRFSGSGSGTDFTLKISRVEAEDVGVYYCGQGTQVPYTFGQGTKLEIKRTVAAPSVFIFPPSDEQLKSGTASVVCLLNNFYPREAKVQWKVDNALQSGNSQESVTEQDSKDSTYSLSSTLTLSKADYEKHKVYACEVTHQGLSSPVTKSFNRGEC
B2: CE115HA000 D101R one-arm antibody (antibody, human IgG1, kappa, L234A L235A, N297A, name in Kabat numbering)
heavy: B1 heavy with F33W, D110R
chain: B1 chain
light: B1 light
B3: CE115HA000 N76S one-arm antibody (antibody, human IgG1, kappa, L234A L235A, N297A, name in Kabat numbering)
heavy: B1 heavy with F33W, N79S
chain: B1 chain
light: B1 light
B4: CE115HA000 S52cA one-arm antibody (antibody, human IgG1, kappa, L234A L235A, N297A, name in Kabat numbering)
heavy: B1 heavy with F33W, S55A
chain: B1 chain
light: B1 light
B5: CE115HA000 A102P one-arm antibody (antibody, human IgG1, kappa, L234A L235A, N297A, name in Kabat numbering)
heavy: B1 heavy with F33W, A111P
chain: B1 chain
light: B1 light
B6: CE115HA000 Y59A one-arm antibody (antibody, human IgG1, kappa, L234A L235A, N297A, name in Kabat numbering)
heavy: B1 heavy with F33W, Y62A
chain: B1 chain
light: B1 light
B7: CE115HA000 G98D one-arm antibody (antibody, human IgG1, kappa, L234A L235A, N297A, name in Kabat numbering)
heavy: B1 heavy with F33W, G104D
chain: B1 chain
light: B1 light
B8: CE115HA000 W33A one-arm antibody (antibody, human IgG1, kappa, L234A L235A, N297A, name in Kabat numbering)
heavy: B1 heavy with F33A
chain: B1 chain
light: B1 light
B9: CE115HA000 K52E one-arm antibody (antibody, human IgG1, kappa, L234A L235A, N297A, name in Kabat numbering)
heavy: B1 heavy with F33W, K52E
chain: B1 chain
light: B1 light
B10: CE115HA000 I51E one-arm antibody (antibody, human IgG1, kappa, L234A L235A, N297A, name in Kabat numbering)
heavy: B1 heavy with F33W, I51E
chain: B1 chain
light: B1 light
B11: CE115HA000 T57N one-arm antibody (antibody, human IgG1, kappa, L234A L235A, N297A, name in Kabat numbering)
heavy: B1 heavy with F33W, T60N
chain: B1 chain
light: B1 light
B12: CE115HA000 Y97D one-arm antibody (antibody, human IgG1, kappa, L234A L235A, N297A, name in Kabat numbering)
heavy: B1 heavy with F33W, Y103D
chain: B1 chain
light: B1 light
B13: CE115HA000 E61Q one-arm antibody (antibody, human IgG1, kappa, L234A L235A, N297A, name in Kabat numbering)
heavy: B1 heavy with F33W, E64Q
chain: B1 chain
light: B1 light
B14: 154R4B07#1 (antibody, human IgG1, kappa, L234A L235A, N297A)
heavy: QVQLVESGGGLVQPGRSLRLSCAASGFTFSNAWMHWVRQAPGKGLEWVAQIKDRGNNYAAYYAESVKGRFTISRDDSKNSIYLQMNSLKTEDTAVYYCRYVHYGSYFFASFYFGVDIWGQGTTVTVSSASTKGPSVFPLAPSSKSTSGGTAALGCLVKDYFPEPVTVSWNSGALTSGVHTFPAVLQSSGLYSLSSVVTVPSSSLGTQTYICNVNHKPSNTKVDKKVEPKSCDKTHTCPPCPAPEAAGGPSVFLFPPKPKDTLMISRTPEVTCVVVDVSHEDPEVKFNWYVDGVEVHNAKTKPREEQYASTYRVVSVLTVLHQDWLNGKEYKCKVSNKALPAPIEKTISKAKGQPREPQVYTLPPSRCELTKNQVSLSCAVKGFYPSDIAVEWESNGQPENNYKTTPPVLDSDGSFFLVSKLTVDKSRWQQGNVFSCSVMHEALHNHYTQKSLSLSPDYKDDDDK
chain: B1 chain
light: B1 light
notes: One-arm antibody
B15: NNS6f73 (antibody)
heavy: QVQLVESGGGLVQPGRSLRLSCAASGFTFSNAWMHWVRQAPGKGLEWVAQIKDKSNNYATYYAESVKGRFTISRDDSKNSIYLQMNSLKTEDTAVYYCRYVHYAAWVVGVRYYGVDAWGQGTTVTVSSASTKGPSVFPLAPSSKSTSGGTAALGCLVKDYFPEPVTVSWNSGALTSGVHTFPAVLQSSGLYSLSSVVTVPSSSLGTQTYICNVNHKPSNTKVDKKVEPKSCDKTHTCPPCPAPEAAGGPSVFLFPPKPKDTLMISRTPEVTCVVVDVSHEDPEVKFNWYVDGVEVHNAKTKPREEQYASTYRVVSVLTVLHQDWLNGKEYKCKVSNKALPAPIEKTISKAKGQPREPQVYTLPPSRCELTKNQVSLSCAVKGFYPSDIAVEWESNGQPENNYKTTPPVLDSDGSFFLVSKLTVDKSRWQQGNVFSCSVMHEALHNHYTQKSLSLSPDYKDDDDK
chain: B1 chain
light: B1 light
notes: one-arm antibody
B16: NNS6f52 (antibody)
heavy: B15 heavy with W106Y, V107M, V108L, V110L, R111G
chain: B1 chain
light: B1 light
notes: one-arm antibody
B17: NNS6f68 (antibody)
heavy: B15 heavy with W106V, V107E, V108W, V110R, R111W
chain: B1 chain
light: B1 light
notes: one-arm antibody
B18: NNS6f58 (antibody)
heavy: B15 heavy with W106S, V107W, V108Q, G109V, V110S
chain: B1 chain
light: B1 light
notes: one-arm antibody
B19: NNS6f64 (antibody)
heavy: B15 heavy with W106L, V108S, G109L, V110T, R111V
chain: B1 chain
light: B1 light
notes: one-arm antibody
B20: NNS6f67 (antibody)
heavy: B15 heavy with W106G, V107L, V108L, G109R, V110A, R111A
chain: B1 chain
light: B1 light
notes: one-arm antibody
B21: NNS6f59 (antibody)
heavy: B15 heavy with W106L, V107L, G109Q, V110E, R111G
chain: B1 chain
light: B1 light
notes: one-arm antibody
B22: NNS6f55 (antibody)
heavy: B15 heavy with W106A, V107G, V108R, G109W, V110L, R111A
chain: B1 chain
light: B1 light
notes: one-arm antibody
B23: NNS6f72 (antibody)
heavy: B15 heavy with W106E, V107G, V108I, G109W, V110W, R111G
chain: B1 chain
light: B1 light
notes: one-arm antibody
B24: NNS6f71 (antibody)
heavy: B15 heavy with W106G, V107W, G109L, V110G, R111S
chain: B1 chain
light: B1 light
notes: one-arm antibody
B25: NNS6f56 (antibody)
heavy: B15 heavy with W106R, V107E, V108A, G109T, V110R, R111W
chain: B1 chain
light: B1 light
notes: one-arm antibody
B26: NNS6f62 (antibody)
heavy: B15 heavy with W106N, V107G, V108G, G109T, V110R, R111H
chain: B1 chain
light: B1 light
notes: one-arm antibody

biological target: CD3ε homodimer protein (human, UniProt P07766 23-126, limits assumed); experiment: SPR Biacore T200, CD3e homodimer on CM4 chip, antibody as analyte, 25 C
Target sequence in this assay (P07766 23-126 limits assumed): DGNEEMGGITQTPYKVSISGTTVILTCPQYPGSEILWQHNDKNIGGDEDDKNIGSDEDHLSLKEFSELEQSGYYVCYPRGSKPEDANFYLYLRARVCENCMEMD
Method: An appropriate amount of CD3ε homodimer protein was immobilized onto Sensor chip CM4 (GE Healthcare Japan Corp.) by the amine coupling method. Then, the antibody having an appropriate concentration was injected thereto as an analyte and allowed to interact with the CD3ε homodimer protein on the sensor chip. Then, the sensor chip was regenerated by the injection of 10 mmol/L glycine-HCl (pH 1.5). The assay was conducted at 25° C., and HBS-EP+ (GE Healthcare Japan Corp.) was used as a running buffer. […] Each parameter was calculated using Biacore T200 Evaluation Software (GE Healthcare Japan Corp.).
Specifically, when the amount of the antibody comprising CE115HA000 bound was defined as X and the amount of the H chain one-amino acid altered form bound was defined as Y, a value of Z (ratio of amounts bound)=Y/X was used.

Row | Binder | KD ratio (KD of CE115HA000/KD of altered form)
1 | B1 | 0.68
2 | B2 | 5.66
3 | B3 | 0.34
4 | B4 | 0.67
5 | B5 | 3.61
6 | B6 | 6.74
7 | B7 | 2.35
8 | B8 | 23
9 | B9 | 19.8
10 | B10 | 0.84
11 | B11 | 9.9
12 | B12 | 64.7
13 | B13 | 0.85

biological target: T1, biotin-labeled human CD154; experiment: ECL competition: biotinylated CD154, CD3ε homodimer as competitor [1]
Method: Next, each obtained IgG was evaluated for its binding to CD3 and human CD154 at the same time by the competition method (electrochemiluminescence method (ECL method)).
A TBST solution containing 0.5% BSA (referred to as a blocking solution; the TBST solution was TBS (manufactured by Takara Bio Inc.) supplemented with 0.1% Tween 20) was added at 150 μL/well to streptavidin plate (MSD K.K.), and the plate was incubated at room temperature for 1 hour or longer. After removal of the blocking solution, each well was washed three times with 250 μL of a TBST solution. The antibody-antigen complex solution was added thereto at 50 L/well, and the plate was incubated at room temperature for 1 hour so that the biotinylated antigen-antibody-detection sulfo-tag antibody complex solution bound via the biotinylated antigen to the streptavidin plate. After removal of the antibody-antigen complex solution, each well was washed three times with a TBST solution, and a solution of 4× READ buffer (MSD K.K.) diluted 2-fold with water was added thereto at 150 μL/well, followed by the detection of the luminescence signal of the sulfo-tag using Sector Imager 2400 (MSD K.K.).

Row | Binder | Relative ECL reaction (to no antigen coating), CD3ε[+]
14 | B14 | 1

biological target: T2, CD3ε homodimer protein (human, UniProt P07766 23-126, limits assumed); experiment: SPR (Biacore T200, 25°C); CD3ε homodimer immobilized on CM4, one-arm antibody as analyte
T2 construct: also called human CD3ε homodimer protein; CD3e homodimer
T2 sequence (P07766 23-126 limits assumed): as above

Row | Binder | Kd
15 | B15 | 26 nM
16 | B16 | 52 nM
17 | B17 | 45 nM
18 | B18 | 44 nM
19 | B19 | 78 nM
20 | B20 | 36 nM
21 | B21 | 200 nM
22 | B22 | 31 nM
23 | B23 | 150 nM
24 | B24 | 51 nM
25 | B25 | 21 nM
26 | B26 | 61 nM
